Laboratory results as given in the supplement of paper PMC10567573.

B1: FBF1 (parent)
chain: FGDSPKAEKRQIGDQEGPRPARST

Variants of: B1
Experiment: protein stability index of a GFP-peptide fusion (GPS, HEK-293T) (PSI 1-6); higher = more stable
Details: c terminus: a fixed tail appended
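Also: lentivirally expressed fusions sorted by FACS into six bins by GFP to DsRed ratio, PSI derived from sequencing read proportions per bin multiplied by bin number.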

Question: Which protein stability index does the source give for FGDSPKAEKRQIGDQEGPRFARST here?
Answer: 4.57

Question: With FGDSPKAEKRQIGDQEGPRIARST as the variant, how does the protein stability index read?
Answer: 4.84

Question: For FGDSPKAEKRQIGDQEGPRRARST, which protein stability index is on record?
Answer: 5.26

Question: Which protein stability index does the source give for FGDSPKAEKRQIGDQEGPREARST here?
Answer: 5.58

Question: Which protein stability index does the source give for FGDSPKAEKRQIGDQEGPRSARST here?
Answer: 5.02

Question: For FGDSPKAEKRQIGDQEGPRVARST, which protein stability index is on record?
Answer: 4.54

Question: Which protein stability index does the source give for FGDSPKAEKRQIGDQEGPRKARST here?
Answer: 4.72

Question: Which protein stability index does the source give for FGDSPKAEKRQIGDQEGPRLARST here?
Answer: 4.46

Question: For FGDSPKAEKRQIGDQEGPRHARST, which protein stability index is on record?
Answer: 4.95

Question: With FGDSPKAEKRQIGDQEGPRTARST as the variant, how does the protein stability index read?
Answer: 5.08

Question: Which protein stability index does the source give for FGDSPKAEKRQIGDQEGPRQARST here?
Answer: 5.39

Question: For FGDSPKAEKRQIGDQEGPRWARST, which protein stability index is on record?
Answer: 4.58

Question: With FGDSPKAEKRQIGDQEGLRPARST as the variant, how does the protein stability index read?
Answer: 5.02

Question: For FGDSPKAEKRQIGDQEGHRPARST, which protein stability index is on record?
Answer: 4.77

Question: For FGDSPKAEKRQIGDQEGCRPARST, which protein stability index is on record?
Answer: 5.22

Question: For FGDSPKAEKRQIGDQEGERPARST, which protein stability index is on record?
Answer: 5.54

Question: Which protein stability index does the source give for FGDSPKAEKRQIGDQEGTRPARST here?
Answer: 4.69

Question: For FGDSPKAEKRQIGDQEGGRPARST, which protein stability index is on record?
Answer: 5.33

Question: For FGDSPKAEKRQIGDQEGARPARST, which protein stability index is on record?
Answer: 5.27

Question: For FGDSPKAEKRQIGDQEGMRPARST, which protein stability index is on record?
Answer: 4.71

Question: Which protein stability index does the source give for FGDSPKAEKRQIGDQEGRRPARST here?
Answer: 4.78

Question: With FGDSPKAEKRQIGDQEGFRPARST as the variant, how does the protein stability index read?
Answer: 4.85

Question: For FGDSPKAEKRQIGDQEGKRPARST, which protein stability index is on record?
Answer: 5.21

Question: With FGDSPKAEKRQIGDQEGIRPARST as the variant, how does the protein stability index read?
Answer: 4.17

Question: With FGDSPKAEKRQIGDQEGVRPARST as the variant, how does the protein stability index read?
Answer: 4.96

Question: With FGDSPKAEKRQIGDQEGQRPARST as the variant, how does the protein stability index read?
Answer: 4.72

Question: Which protein stability index does the source give for FGDSPKAEKRQIGDQEGYRPARST here?
Answer: 4.5

Question: With FGDSPKAEKRQIGDQEGSRPARST as the variant, how does the protein stability index read?
Answer: 4.87

Question: With FGDSPKAEKRQIGDQEGDRPARST as the variant, how does the protein stability index read?
Answer: 5.48

Question: For FGDSPKAEKRQIGDQEGNRPARST, which protein stability index is on record?
Answer: 4.15

Question: For FGDSPKAEKRQIGDQEGPQPARST, which protein stability index is on record?
Answer: 4.91

Question: Which protein stability index does the source give for FGDSPKAEKRQIGDQEGPEPARST here?
Answer: 5.73

Question: For FGDSPKAEKRQIGDQEGPFPARST, which protein stability index is on record?
Answer: 4.87

Question: For FGDSPKAEKRQIGDQEGPSPARST, which protein stability index is on record?
Answer: 5.4

Question: Which protein stability index does the source give for FGDSPKAEKRQIGDQEGPNPARST here?
Answer: 5.34

Question: With FGDSPKAEKRQIGDQEGPMPARST as the variant, how does the protein stability index read?
Answer: 4.9

Question: Which protein stability index does the source give for FGDSPKAEKRQIGDQEGPCPARST here?
Answer: 5.4

Question: For FGDSPKAEKRQIGDQEGPIPARST, which protein stability index is on record?
Answer: 5.08

Question: With FGDSPKAEKRQIGDQEGPDPARST as the variant, how does the protein stability index read?
Answer: 5.3

Question: With FGDSPKAEKRQIGDQEGPYPARST as the variant, how does the protein stability index read?
Answer: 4.21

Question: With FGDSPKAEKRQIGDQEGPTPARST as the variant, how does the protein stability index read?
Answer: 4.23

Question: Which protein stability index does the source give for FGDSPKAEKRQIGDQEGPKPARST here?
Answer: 4.88

Question: Which protein stability index does the source give for FGDSPKAEKRQIGDQEGPGPARST here?
Answer: 5.13

Question: For FGDSPKAEKRQIGDQEGPWPARST, which protein stability index is on record?
Answer: 3.25

Question: With FGDSPKAEKRQIGDQEGPLPARST as the variant, how does the protein stability index read?
Answer: 4.9

Question: Which protein stability index does the source give for FGDSPKAEKRQIGDQEGPHPARST here?
Answer: 3.86

Question: With FGDSPKAEKRQIGDQEGPRPAMST as the variant, how does the protein stability index read?
Answer: 5.72

Question: Which protein stability index does the source give for FGDSPKAEKRQIGDQEGPRPAKST here?
Answer: 4.92

Question: With FGDSPKAEKRQIGDQEGPRPAPST as the variant, how does the protein stability index read?
Answer: 5.64

Question: With FGDSPKAEKRQIGDQEGPRPACST as the variant, how does the protein stability index read?
Answer: 5.26

Question: Which protein stability index does the source give for FGDSPKAEKRQIGDQEGPRPALST here?
Answer: 5.38

Question: Which protein stability index does the source give for FGDSPKAEKRQIGDQEGPRPAQST here?
Answer: 5.16

Question: For FGDSPKAEKRQIGDQEGPRPATST, which protein stability index is on record?
Answer: 4.8

Question: For FGDSPKAEKRQIGDQEGPRPAGST, which protein stability index is on record?
Answer: 4.92

Question: For FGDSPKAEKRQIGDQEGPRPAEST, which protein stability index is on record?
Answer: 4.79

Question: For FGDSPKAEKRQIGDQEGPRPAHST, which protein stability index is on record?
Answer: 4.97

Question: With FGDSPKAEKRQIGDQEGPRPAFST as the variant, how does the protein stability index read?
Answer: 4.49

Question: With FGDSPKAEKRQIGDQEGPRPADST as the variant, how does the protein stability index read?
Answer: 5.27

Question: With FGDSPKAEKRQIGDQEGPRPAIST as the variant, how does the protein stability index read?
Answer: 5.46

Question: Which protein stability index does the source give for FGDSPKAEKRQIGDQEGPRPAAST here?
Answer: 5.15

Question: For FGDSPKAEKRQIGDQEGPRPAWST, which protein stability index is on record?
Answer: 3.86

Question: With FGDSPKAEKRQIGDQEGPRPANST as the variant, how does the protein stability index read?
Answer: 5.66

Question: Which protein stability index does the source give for FGDSPKAEKRQIGDQEGPRPASST here?
Answer: 5.4

Question: Which protein stability index does the source give for FGDSPKAEKRQIGDQEGPRPARAT here?
Answer: 5.25

Question: Which protein stability index does the source give for FGDSPKAEKRQIGDQEGPRPARDT here?
Answer: 5.31

Question: With FGDSPKAEKRQIGDQEGPRPARTT as the variant, how does the protein stability index read?
Answer: 5.12

Question: Which protein stability index does the source give for FGDSPKAEKRQIGDQEGPRPARMT here?
Answer: 5.01

Question: With FGDSPKAEKRQIGDQEGPRPARNT as the variant, how does the protein stability index read?
Answer: 5.5

Question: Which protein stability index does the source give for FGDSPKAEKRQIGDQEGPRPARET here?
Answer: 5.03

Question: For FGDSPKAEKRQIGDQEGPRPARLT, which protein stability index is on record?
Answer: 4.98

Question: With FGDSPKAEKRQIGDQEGPRPARRT as the variant, how does the protein stability index read?
Answer: 4.78

Question: For FGDSPKAEKRQIGDQEGPRPARKT, which protein stability index is on record?
Answer: 4.29

Question: Which protein stability index does the source give for FGDSPKAEKRQIGDQEGPRPARGT here?
Answer: 5.7

Question: Which protein stability index does the source give for FGDSPKAEKRQIGDQEGPRPARCT here?
Answer: 4.66

Question: With FGDSPKAEKRQIGDQEGPRPARPT as the variant, how does the protein stability index read?
Answer: 4.67

Question: For FGDSPKAEKRQIGDQEGPRPARVT, which protein stability index is on record?
Answer: 5

Question: For FGDSPKAEKRQIGDQEGPRPARIT, which protein stability index is on record?
Answer: 4.57

Question: For FGDSPKAEKRQIGDQEGPRPARHT, which protein stability index is on record?
Answer: 5.53

Question: For FGDSPKAEKRQIGDQEGPRPARYT, which protein stability index is on record?
Answer: 5.37

Question: With FGDSPKAEKRQIGDQEGPRPARSQ as the variant, how does the protein stability index read?
Answer: 5.62

Question: For FGDSPKAEKRQIGDQEGPRPARSD, which protein stability index is on record?
Answer: 4.52

Question: With FGDSPKAEKRQIGDQEGPRPARSM as the variant, how does the protein stability index read?
Answer: 4.81

Question: For FGDSPKAEKRQIGDQEGPRPARSE, which protein stability index is on record?
Answer: 5.3

Question: With FGDSPKAEKRQIGDQEGPRPARSR as the variant, how does the protein stability index read?
Answer: 4.68

Question: Which protein stability index does the source give for FGDSPKAEKRQIGDQEGPRPARSH here?
Answer: 4.98

Question: With FGDSPKAEKRQIGDQEGPRPARSW as the variant, how does the protein stability index read?
Answer: 4.34

Question: For FGDSPKAEKRQIGDQEGPRPARSY, which protein stability index is on record?
Answer: 4.74

Question: For FGDSPKAEKRQIGDQEGPRPARSI, which protein stability index is on record?
Answer: 4.45

Question: For FGDSPKAEKRQIGDQEGPRPARSN, which protein stability index is on record?
Answer: 5.34

Question: For FGDSPKAEKRQIGDQEGPRPARSP, which protein stability index is on record?
Answer: 5.25

Question: For FGDSPKAEKRQIGDQEGPRPARSV, which protein stability index is on record?
Answer: 4.67

Question: With FGDSPKAEKRQIGDQEGPRPARSA as the variant, how does the protein stability index read?
Answer: 4.91

Question: With FGDSPKAEKRQIGDQEGPRPARSC as the variant, how does the protein stability index read?
Answer: 4.96

Question: Which protein stability index does the source give for FGDSPKAEKRQIGDQEGPRPARSF here?
Answer: 4.83
